# In US20260217797A1:
# Columns and labels:
# [1] = target: SARS-CoV-2 P.1 Spike (Gamma) (SARS-CoV-2) (UniProt P0DTC2); experiment: Octet BLI single point, monovalent
# [2] = target: SARS-CoV-2 B.1.617.1 (Kappa) RBD (SARS-CoV-2) (UniProt P0DTC2); experiment: Octet BLI single point, monovalent
# [3] = target: SARS-CoV-2 B.1.351 (Beta) RBD (SARS-CoV-2) (UniProt P0DTC2); experiment: Octet BLI single point, monovalent
# [4] = target: SARS-CoV-2 B.1.617.2 (Delta) RBD (SARS-CoV-2) (UniProt P0DTC2); experiment: Octet BLI single point, monovalent
# [5] = target: SARS-CoV-2 Gamma (P.1) spike protein (on reporter virus particles) (SARS-CoV-2) (UniProt P0DTC2); experiment: cell-based or functional assay
# [6] = target: SARS-CoV-2 Alpha (B.1.1.7) spike protein (on reporter virus particles) (SARS-CoV-2) (UniProt P0DTC2); experiment: cell-based or functional assay
# [7] = target: SARS-CoV-2 Beta (B.1.351) spike protein (on reporter virus particles) (SARS-CoV-2) (UniProt P0DTC2); experiment: cell-based or functional assay
# [8] = target: SARS-CoV-2 Epsilon (B.1.427/429) spike protein (on reporter virus particles) (SARS-CoV-2) (UniProt P0DTC2); experiment: cell-based or functional assay
Substance,Kd [1] [nM],Kd [2] [nM],Kd [3] [nM],Kd [4] [nM],PsV neutralization IC50 [5] [µg/mL],PsV neutralization IC90 [5] [µg/mL],PsV neutralization IC50 [6] [µg/mL],PsV neutralization IC90 [6] [µg/mL],PsV neutralization IC50 [7] [µg/mL],PsV neutralization IC90 [7] [µg/mL],PsV neutralization IC50 [8] [µg/mL],PsV neutralization IC90 [8] [µg/mL]
RGN10987 (antibody),12.5,3.05,15,9.65,–,–,–,–,–,–,–,–
RGN10933 (antibody),–,12,–,2.7,3.89,16.2,0.0064,0.081,0.897,8.28,0.0074,0.058
